Assay [1] has as its target human Integrin Associated Protein (IAP) (human) (UniProt Q08722). Description: cell ELISA, CF1-hIAP-55-8 minus CF1-pCOS1, antibody at 3 µg/ml.
Assay [2] shares this target. Briefly: cell ELISA on PLP-fixed CF-1 cells expressing human IAP, antibody at 3 µg/ml. (In general: In an ELISA, binding on a coated surface is turned into a signal by an enzyme label.)
Assay [3] has the same target. Briefly: cell ELISA, CF1-hIAP-55-8 minus CF1-pCOS1, hybridoma culture supernatant.
For assay [4] the target is unchanged. Description: cell ELISA on PLP-fixed CF-1 cells expressing human IAP, hybridoma culture supernatant.
Assay [5] has the same target. Description: cell-based or functional assay.

UniProt Q08722, sequence (Q08722 19-323): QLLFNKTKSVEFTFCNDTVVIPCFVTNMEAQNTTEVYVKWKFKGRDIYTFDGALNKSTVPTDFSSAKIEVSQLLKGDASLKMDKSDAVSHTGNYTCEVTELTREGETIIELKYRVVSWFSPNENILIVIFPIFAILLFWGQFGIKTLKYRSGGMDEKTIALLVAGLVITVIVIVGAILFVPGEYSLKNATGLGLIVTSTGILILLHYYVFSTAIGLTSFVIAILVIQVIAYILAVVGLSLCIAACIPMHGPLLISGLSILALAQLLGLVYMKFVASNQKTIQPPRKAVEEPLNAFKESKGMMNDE

Take “human IAP-recognizing anti-CD47 antibody (PharMingen)”: the Specific binding (absorbance, CF1-pCOS1 subtracted) in assay [1] stood at 0.296 absorbance. In assay [2], this molecule yielded an absorbance in ELISA (raw data, CF1-hIAP-55-8) of 0.456 absorbance.

B1: monoclonal antibody of hybridoma 7D2-E3 (antibody, from another filing, IgG2a)
scFv: QVQLQQSGPELVKPGASVKMSCKASGYTFANHVIHWVKQKPGQGLEWIGYIYPYNDGTKYNEKFKDKATLTSDKSSTTAYMDLSSLASEDSAVYYCARGGYYTYDDWGQGTTLTVSSGGGGSGGGGSGGGGSDVVMTQSPLSLPVSLGDQASISCRSSQSLVHSNGKTYLHWYLQKPGQSPKLLIYKVSNRFSGVPDRFSGSGSVTDFTLMISRVEAEDLGVYFCSQSTHVPYTFGGGTKLEIKDYKDDDDK
In assay [3], B1 yielded a Specific binding (absorbance, CF1-pCOS1 subtracted) of 0.379 absorbance. In addition, the absorbance in ELISA (raw data, CF1-hIAP-55-8) in assay [4] was found to be 0.568 absorbance. Further, the percentage (%) of apoptosis of Jurkat cells, PI staining, flow cytometry (8G2 control supernatant 7.43%) in assay [5] stood at 9.84%.

These data come from patent publication US7531643.
